In paper doi:10.64898/2025.12.11.693622 (bioRxiv, 2025):
Changes are numbered by the printed parent chain. Numbers in names are those of the source. Where “and” joins values, the source holds several entries; their conditions need not be identical. Identical values can stand only once.

How the values were obtained:
crystal structure = molecular target: the molecule itself; assay: crystal structure
AUC + SEC = molecular target: the molecule itself; assay: AUC + SEC
SEC-MALS = molecular target: the molecule itself; assay: SEC-MALS
cross-linking = molecular target: the molecule itself; assay: cross-linking

B1: CCDC127 coiled-coil domain (CCDC127^CC, residues 48-120), wild type (domain or fragment, human, UniProt Q96BQ5 48-120, looked up)
chain: SQKEVEKEREAYRRRTAAFQQDLEAKYHAMISENRRAVAQLSLELEKEQNRTASYREALISQGRKLVEEKKLL
stoichiometry N (crystal structure): 2 and 4

B2: CCDC127^CC-K73A (residues 48-120) (domain or fragment, human, UniProt Q96BQ5 48-120, looked up)
chain: B1 chain with K26A
stoichiometry N (AUC + SEC): 4

B3: CCDC127^CC D69A (residues 48-120) (domain or fragment, human, UniProt Q96BQ5 48-120, looked up)
chain: B1 chain with D22A
stoichiometry N (AUC + SEC): 2

B4: MBP-tagged complete IMS domain of CCDC127, C144S with L176S/F177S/V222S/W223S (MBP-CC-CHB^C144STip, residues 48-260) (domain or fragment, human, UniProt Q96BQ5 48-260, looked up)
chain: SQKEVEKEREAYRRRTAAFQQDLEAKYHAMISENRRAVAQLSLELEKEQNRTASYREALISQGRKLVEEKKLLEQERAQVMQEKRQVQPLRSAYLSSLQREENWQRRARLLLKEFEAVLTERQNIYCSSSLPRSKRLEIEKSLLVRASVDPVAADLEMAAGLTDIFQHDTYCGDSSNTNKRQNGRLMWLYLKYWELVVELKKFKRVEEAILEK
stoichiometry N (SEC-MALS): 2 to 3

B5: MBP-tagged complete IMS domain of CCDC127, C144S (MBP-CC-CHB^C144S, residues 48-260) (domain or fragment, human, UniProt Q96BQ5 48-260, looked up)
chain: B4 chain with S129L, S130F, S175V, S176W
stoichiometry N (SEC-MALS): 2

B6: CCDC127^1-134-HA (N-terminal variant with the coiled-coil, lacking the C-terminal domain) (domain or fragment, human, UniProt Q96BQ5 1-134, looked up)
chain: MNNLNDPPNWNIRPNSRADGGDGSRWNYALLVPMLGLAAFRWIWSRESQKEVEKEREAYRRRTAAFQQDLEAKYHAMISENRRAVAQLSLELEKEQNRTASYREALISQGRKLVEEKKLLEQERAQVMQEKRQV
stoichiometry N (cross-linking): 2

B7: CCDC127 WT-HA (full-length CCDC127 with HA tag) (natural protein, human, UniProt Q96BQ5 1-260, looked up)
chain: MNNLNDPPNWNIRPNSRADGGDGSRWNYALLVPMLGLAAFRWIWSRESQKEVEKEREAYRRRTAAFQQDLEAKYHAMISENRRAVAQLSLELEKEQNRTASYREALISQGRKLVEEKKLLEQERAQVMQEKRQVQPLRSAYLSCLQREENWQRRARLLLKEFEAVLTERQNIYCSLFLPRSKRLEIEKSLLVRASVDPVAADLEMAAGLTDIFQHDTYCGDVWNTNKRQNGRLMWLYLKYWELVVELKKFKRVEEAILEK
stoichiometry N (cross-linking): 2

B8: MBP-tagged C-terminal helical bundle of CCDC127, C144S variant (MBP-CHB^C144S, residues 137-260) (domain or fragment, human, UniProt Q96BQ5 137-260, looked up)
chain: LRSAYLSSLQREENWQRRARLLLKEFEAVLTERQNIYCSLFLPRSKRLEIEKSLLVRASVDPVAADLEMAAGLTDIFQHDTYCGDVWNTNKRQNGRLMWLYLKYWELVVELKKFKRVEEAILEK
stoichiometry N (SEC-MALS): 2

B9: MBP-tagged C-terminal helical bundle of CCDC127, C144S with L176S/F177S/V222S/W223S (MBP-CHB^C144STip, residues 137-260) (domain or fragment, human, UniProt Q96BQ5 137-260, looked up)
chain: B8 chain with L40S, F41S, V86S, W87S
stoichiometry N (SEC-MALS): 2

B10: CCDC127^135-260-HA (C-terminal helical bundle domain) (domain or fragment, human, UniProt Q96BQ5 135-260, looked up)
chain: QPLRSAYLSCLQREENWQRRARLLLKEFEAVLTERQNIYCSLFLPRSKRLEIEKSLLVRASVDPVAADLEMAAGLTDIFQHDTYCGDVWNTNKRQNGRLMWLYLKYWELVVELKKFKRVEEAILEK
stoichiometry N (cross-linking): 2
